Assays:
UL84-6xHis [1] = target: T1, UL84-6xHis (Human cytomegalovirus, UniProt P16727 1-586); experiment: ELISA
T1 sequence: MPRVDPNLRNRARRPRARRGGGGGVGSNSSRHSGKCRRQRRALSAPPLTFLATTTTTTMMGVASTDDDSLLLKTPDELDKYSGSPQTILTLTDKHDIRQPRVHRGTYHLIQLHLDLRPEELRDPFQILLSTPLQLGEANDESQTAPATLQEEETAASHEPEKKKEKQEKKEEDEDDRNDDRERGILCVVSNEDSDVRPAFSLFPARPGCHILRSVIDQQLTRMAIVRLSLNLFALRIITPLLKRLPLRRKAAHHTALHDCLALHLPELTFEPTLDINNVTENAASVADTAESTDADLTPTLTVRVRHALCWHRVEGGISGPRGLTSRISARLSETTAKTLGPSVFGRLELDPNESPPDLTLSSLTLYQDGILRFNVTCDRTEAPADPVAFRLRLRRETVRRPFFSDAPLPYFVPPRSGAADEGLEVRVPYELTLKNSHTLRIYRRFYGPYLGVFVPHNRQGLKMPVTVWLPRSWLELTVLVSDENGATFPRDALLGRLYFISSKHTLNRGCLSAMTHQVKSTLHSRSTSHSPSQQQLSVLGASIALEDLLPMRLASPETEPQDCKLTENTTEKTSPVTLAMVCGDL

6xHis-IE2(87-579) [2] = target: T2, 6xHis-IE2(87-579) (Human cytomegalovirus, UniProt Q6SWP7 87-579); experiment: ELISA
T2 sequence: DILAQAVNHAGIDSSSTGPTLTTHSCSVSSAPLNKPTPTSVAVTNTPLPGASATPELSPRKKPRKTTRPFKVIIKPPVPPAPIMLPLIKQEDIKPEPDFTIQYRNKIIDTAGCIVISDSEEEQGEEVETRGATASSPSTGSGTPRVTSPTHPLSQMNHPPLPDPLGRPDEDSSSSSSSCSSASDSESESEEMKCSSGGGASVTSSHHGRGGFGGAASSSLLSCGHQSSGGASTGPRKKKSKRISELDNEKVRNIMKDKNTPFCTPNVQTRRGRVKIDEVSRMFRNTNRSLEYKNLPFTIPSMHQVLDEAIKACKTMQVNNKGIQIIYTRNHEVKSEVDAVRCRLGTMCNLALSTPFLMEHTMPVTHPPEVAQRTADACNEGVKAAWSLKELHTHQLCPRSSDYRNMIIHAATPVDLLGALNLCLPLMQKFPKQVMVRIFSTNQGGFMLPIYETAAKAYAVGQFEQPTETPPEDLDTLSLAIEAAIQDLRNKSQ

6xHis-UL44(1-290) [3] = target: T3, 6xHis-UL44(1-290) (Human cytomegalovirus, UniProt P16790 1-290); experiment: ELISA
T3 sequence (P16790 1-290): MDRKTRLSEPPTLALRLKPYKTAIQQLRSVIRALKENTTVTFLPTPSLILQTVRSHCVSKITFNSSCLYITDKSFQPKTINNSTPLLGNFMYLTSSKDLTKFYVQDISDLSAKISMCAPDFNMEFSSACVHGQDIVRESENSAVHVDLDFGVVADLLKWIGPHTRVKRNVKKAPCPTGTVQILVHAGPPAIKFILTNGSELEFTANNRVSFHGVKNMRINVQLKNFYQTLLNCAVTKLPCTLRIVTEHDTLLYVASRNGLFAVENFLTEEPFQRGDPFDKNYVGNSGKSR

UL84-6xHis [4] = target: T1, UL84-6xHis; experiment: pull-down
6xHis-IE2(87-579) [5] = target: T2, 6xHis-IE2(87-579); experiment: pull-down
6xHis-UL44(1-290) [6] = target: T3, 6xHis-UL44(1-290); experiment: pull-down
UL84-6xHis [7] = target: T1, UL84-6xHis; experiment: pull-down immunoblot
6xHis-IE2(87-579) [8] = target: T2, 6xHis-IE2(87-579); experiment: pull-down immunoblot
6xHis-UL44(1-290) [9] = target: T3, 6xHis-UL44(1-290); experiment: pull-down immunoblot

AAGGGGGGGGGTGAGGGGGGGGGGTT (structured_DNA) [oriG4-1] showed a Kd (UL84-6xHis [1]) of 14.2 nM, a Kd (6xHis-IE2(87-579) [2]) of 123 nM and a Kd (6xHis-UL44(1-290) [3]) of 25.5 nM.

AAGGAGAGAGGTGAGGAGGAAAGGTT (ssDNA) [oriG4-1m]: no binding (UL84-6xHis [4]); no binding (6xHis-IE2(87-579) [5]); no binding (6xHis-UL44(1-290) [6]).

AAGGGAAAGGGTGAGGGGGGGGGGTT (structured_DNA) [oriG4-1 L1]: binds (UL84-6xHis [7]); binds (6xHis-IE2(87-579) [8]); binds (6xHis-UL44(1-290) [9]).
